The DeepSol protein solubility set

Assay: soluble on expression in E. coli; label from the status in PepcDB or PDB records

Soluble on expression in E. coli, soluble:
MDCMRKLDRVDMQLVKILSENSRLTYRELADILNTTRQRIARRIDKLKKLGIIRKFTIIPDIDKLGYMYAIVLIKSKVPSDADKVISEISDIEYVKSVEKGVGRYNIIVRLLLPKDIKDAENLISEFLQRIKNAENVEVILISEVRKFEII, MDDLEGKKCIGCQKPAKLRCPTCIKMSLPDAYFCDQSCFKAFWPIHKFSHSDVNGPYNPWPCYSFTGSLRPGRVTDRRPVPDHIPRPDYALHPQGVSLEERQSKSERVIKVLTDEEKEGLKVACKLGRECLNEAAKACGPGVTTEEIDRVVHEAAIERDCYPSPLGYYKFPKSCCTSVNEVICHGIPDMRKLENGDLCNVDVTVYHRGFHGDLNETFLVGDKVDEESRKLVKVTFECLQQAIAIVKPGVKFREIGNVIQKHANANGFSVVKGYCGHGIHRLFHTAPNVPHYAKNNATGVMKAGNSFTIEPMINAGTYHDDKWPDDWTAVTRDGRRSAQFEQTLLVTDTGCEILTKRDGNRPWFMDQIEQSY, MDDLQADDIKTSDENSAMVLLVDDQAMIGEAVRRGLAGHESIDFHFCADPHQAIAQAVQIKPTVILQDLVMPGLDGLTLVREYRSNPLTRDIPIIVLSTKEDPLIKSAAFAAGANDYLVKLPDNIELVARIRYHSRSYMTLLQRDEAYRALRVSQQQLLDTNLVLQRLMNSDGLTGLSNRRHFDEYLELEWRRATRDQAQLSLLMIDVDYFKAYNDNFGHLEGDEALRQVAKAIRNSCSRPSDLPARYGGEEFAMVLPNTSPGGARLLAEKLRQSVAGMNIPHIAPVPGSSLTVSIGVATVTPQVGQHSRQLILDADKGLYLAKNNGRNQVAAG, MDERIQALRKEVDRVNREILRLLSERGRLVQEIGRLQTELGLPHYDPKREEEMLAYLTAENPGPFPDETIRKLFKEIFKASLDLEERQDQKKFLYSKRHKPEPTRVRVKDVVFGEKPLLIAGPCSIESEEQIMATARFLAARGVRVLRGGAFKPRTSPYGFQGLGVEGLKLGRKAADAFGMVFVTEVMDTRDVEVVAEYADILQIGARNMQNFALLKEVGKARRPVLLKRGLSATMEEWFYAAEYILAQGNEQVILAERGIRTFERWTRNTLDLSAVALAKQETHLPVVVDVTHAAGRTDLLAPLARAALAVGADGVHVEVHPNPKVALSDNQQQMDFAQFDRFLEAIRDLLQAP, MDGLFEFCQLSTGGSVAGAVKLNRQQTDMAVNWAGGLHHAKKYEASGFCYVNDIVLAILELLKYHQRVLYIDIDIHHGDGVEEAFYTTDRVMTVSFHKYGEYFPGTGDLRDIGAGKGKYYAVNFPMCDGIDDESYGQIFKPIISKVMEMYQPSAVVLQCGADSLSGDRLGCFNLTVKGHAKCVEVVKTFNLPLLMLGGGGYTIRNVARCWTYETAVALDCEIPNELPYNDYFEYFGPDFKLHISPSNMTNQNTPEYMEKIKQRLFENLRMLPHAPGVQMQAIPEDAVHEDSGDEDGEDPDKRISIRASDKRIACDEEFSDSEDEGEGGRRNVADHKKGAKKARIEEDKKETEDKKTDVKEEDKSKDNLEHHHHHH, MDIMNEKVKKIIEFMDKNSIDAVLIAKNPNVYYISGASPLAGGYILITGESATLYVPELEYEMAKEESNIPVEKFKKMDEFYKALEGIKSLGIESSLPYGFIEELKKKANIKEFKKVDDVIRDMRIIKSEKEIKIIEKACEIADKAVMAAIEEITEGKKEREVAAKVEYLMKMNGAEKPAFDTIIASGYRSALPHGVASDKRIERGDLVVIDLGALYQHYNSDITRTIVVGSPNEKQKEIYEIVLEAQKKAVESAKPGITAKELDSIARNIIAEYGYGEYFNHSLGHGVGLEVHEWPRVSQYDETVLREGMVITIEPGIYIPKIGGVRIEDTILITKNGSKRLTKTERELI

Soluble on expression in E. coli, not soluble:
MDDDDTFTCRIQYINDADPFATTSSSYLEPMRPVTFKFRLHECISDQLQDVIRTLRAPHKAGDSSLQVYRGLEGGGGELHTYLDNDMTLTDQQEELDILKADTRRCSLVLRTQTSLRVKTIIDKLLNCSGRDQRRALFSLKQIFQDDQDLVHEFVQNQGLDCMIRLGRTADQNHQNYILRALGQLMLYVDGMNGIIAHNGTIQWLYELLDSPFRLVVKTALKLLLVFIEYNDNNALLVLTAIQTVDKSKGQADWSGLMKVLTEKDSPDAETLVYGMTVVNKALHGIPDRVVILEPLHEFHPQFPQQFLHGNHQSGRIFNRLHLLQLITTISGLFAAKIFRRRFSWFRKIKRTRFRKKPTRVKVKAPPPSFPTLFSPTESKTMDFSEVAPQEPEPEKVAPPPPRAKIEDTGSGNSFADMLQKRAARSAEANRGTFEKKESEAEMQWKKAAENLEKRPLIINDLDFSQFHGVEYQQDPLQLARMAKMKEMAENGMRGGPVGVGVPPPPPPPSAIPLPPRLQGGIPPPPPLGIIPPPPPPGNLLMNGINRGDISPAANKGVLKLHWKPATVEQPDGIPSLKQKGSFWNTVDGAVPTFDAKKIVQLFETKKEKEAPVKKVAETKTQTLSVLPLKRSQAINIGLTKLPPINVIPAAIMKFDSLVLNKDGIEKILKTMMPSPKEIEEIEIKAAENPEMTLGNAEQLLLKLSQIPCLLERLRLWLFTLDYKNSEKDIAEPLMDMQLAMKEMEESRTFKVAMGMLLAIGNSLSGTDIKGFYLDYLTKASEVKDPVYKHTLTYHLAEYMVEHFSEGTDLYSEFGAVARSARVDYKELLDNLIRLEKDCKSSWECLATINVAQRIHQLKAIYTVTKNRWHSFLLYFGYSVDEIPNQTPNDVFKMVTEFSLEYRTTRDKILQQRKRLAEKRERNKTRGKIWALEGSSAEGGAGDAAPLRRRNHGPGTVAPVQNSQQRHDDMSKMLASMADDNNSLRRRPAGSNGVNGRNFGGSVKDLVDTESPEDEILNGLVKAATLQTDPRDQRRRARQFNRKSLRRTRTLKMVDGQLETNY, MDDLRIEYDAPNDVYFPGQAVTGKVIIQNREWIKARFLKICIHGGAHTHWSESRSTYRTNTRGERERFTENVNYNATINYLTGESIAWQSRDGTDRLPAGTNVFPFAFNLPINCAPSFEGCHGHIRYDVHVELDRPWKFNKKSRKCFSVIPVFDLNITPTAINPMVNTASKNTGLILKKGLVTITVNLPKRGYVAGEIMPITVNIDNGSKVAVSEVSAKMTQLSHFHASHGNMIGVTAHTHNRNDEKLVAESRRVADVPAKSRGQMVLSMKIPAIVPSFNCPIIAVDYCLTVKVSTQQIFGGGLKCEFPLIIGTIPIRQMNQAAPGAMPTMPSVSAPPYPVVAGASASQAVYPTAPSAPPASPGGEAPPSYEESVHGAGKVEDAEAFAPRYPVYNNLPQQQNSQLPPEYAPPLPAKSGF, MDDNNSEFKHLFPIAVEVTEGKTYVWCGCGKSKTQPFCDKENCGDKAVSFIAELTEDVYFCNCKQTKNPPFCDGSHAKILLEVVKKKAKQMNRKGSLKLEHHHHHH, MDDRRPQLTEEQLLFRIALTHVKGVGSVLARQLLSAMGSPEAIFSDRKELVQRLPKAPRRLLDAIFSPSVMEEARRKLDQALKAGLNMYFITDDNYPYRLKECVDAPILLYSKGNVDLSPRRVLSIVGTRNITAYGRTATERIVSGLAETIPDLLIVSGLAYGVDVAAHKAALDNGLPTVAVLAHGLDRIYPSGHRSIAMEMLRNGGLLTDYPMGTEPERFNFVGRNRIVAGLSDATLVIESAEKGGSLITAGLAFGYNREVLALPGRATDSRSAGCNALIRDQKAALVSSAQDVLTLLDWSSTIDAKPQTLNFRPDSWPDTPVAECLLRAGTASVDELTRATGLPINDVSAQLFDLELDGLVQSQPGGIYSVI, MDDSSEEANQFEPPPAIRKSTRAVNNLSPHQKEVRCQCGTNNTDNRLIKCVECEKWQHAICMSVMPLDIIMTYKCEMCEPRLLMVSRSQARAYQGVEPEPREVRKKGRNQSVNLEEFLEFLSEASENISRPLALTTLFEDYKEHINYPQSVRILRKQLESNLLETISMSPNYYADRKAQMLFAMGLRVKGEFLERLERNAVVEVDGYHRITFYKSKNLEFRGKHRVGRFPLVNRRKSAESTSQQHGNSGEEDDDDIFIDLVVPVTGNSRWNQFPVKQEIPDEQSFGSASTLPNAEIEPNLQYSLSDTMTTGSASTWNMAATPPSEMRGIMMESMNGLHALQSASYPPYQEMQEMLCVQHTMMKSMHEIIKTQSDFYREMFKTRAIAGAPPAPATTSLRAFLHFLKGYVDYLESEQLVDCSRLTQQHLETCRAADKLISMEKLLTGLAVATTIAEAHLSDVSAIINGASAMEFYKFIEIYASNQSNSAFSGLCTDLKQKIQALVNMDKKIPFKELSRAFRTAISLVSQ, MDEQISKSQKKRDAHYLQDIGIKFIDLSASKLDSLPLPDNLRQAIVDARSIKSHGAKRRQAQLIGKLMRAADFEAILAAYEKILEEESSVTASFHEIELWRDRLLQDGKDALTEFIDAYQPEDVQQLRQLIKKALDDQMKEKNTGAAKALFRYLRSLIK, MDERRKRKAKDQLSPYSNPDEENDRHNTAIEPSPSASRKRAKARVGDLGTIADSGPLKGVLSSVNILKPRIRSDRISGLNRCFVNAVQKVVEKESNKSLLYLFRQYEKYYEELNEASD, MDFKQRHTWLKIASCKSISAKKRASIWQKLTEFDQYEMTTQTFAESFFPVDKLAQILMELETAEACFFDDVTLIWILDDAYPALLREIYEAPPILFCKGNIDLLQQQAIAIVGTRQMSEYGRKACMKIASELAENKLTIVSGMAIGIDSTAHRATLNKQGATIAVLGSGVNKVYPKKNELLAKEIVKEGLLLSEYLPDEEAKRWHFPERNRIISGLAIGTVIIEAAERSGSLITADIALEQNRQVFAVPGNIFIDTWQGTNYLIQEGAKLVMNSNNIIEEFIQIKP, MDFSCGAASIATLLNNFYGRHYSEAEILDKMDKTQMRASFDDMQRIMPELGFEAQGYALPFEQLVQLKIPVIVYLKYRKNNHFSVLNGINGETVLLADPSLGHVSMSKSQFLSAWKTRDGEMEGKILAIVPKNTDFVRNQMFFNKNPVRQTRFTVEQIQMRQKR, MDFYDTDELRDFMALVEKTNDIKKIALFRILAFTGIRKGELLALEWKDYRKSTLDINKAISHSPVGYEILPPKANSNRLLSLDEKTCKILDELHQTYPESTRIFESENGGMLSPSKPRKWLLEITKEKEIEPIRIHAFRHTHASLLFESGMSLKQVQYRLGHADLKTTMNIYTHITKLEHHHHHH, MDGQTLHAWAKRFALELPFTEHCWPFGPQYDVFKVGGKIFMLFTEHHCRPVVNLKSDPQKSLVNQQIYPSIAPGYHMNKKHWISVYAGEDITVSLLNDLINDSWNLVVDGLPKREQLRLRPR, MDIKAQLKQIQDKGLYRELQPIQSVEKQYIYINDQSYINFTSNDYLGIGQLEYQPQNFLDFIKTYSIHLSSSRLVSGNSVVYQQLEQAISEHFNFEDALIFNSGYDANLAVFNIFKNNNVVIFSDQQNHASIIDGIKLSGLSKVIYQHLNYDDLESHLAQDTHLDVQKVIVSDSVFSTNGTKADINRLVHLKQRYNAILIIDASHSLGLNLFEYHADIDIVTSSLSKAWGAHGGIIFSSKDIKDLIINKGRSLIYSSSLPSYHLYFIQVSLQHVIEDTYRREKLNALSEYFNHQFMELFPNQPLSNTPIKNIVCDSLASAQAQYDMLFEHGIFVSYLRYPTVSQPTLRISLSYFHDTDDIDRLFNVMKQYDEGDSYV, MDITNLIELETICLDLKAQTKDEALKELVEMLEAAGKLNSQSQFLADIWKREEIGNTGFDDGIAIPHAKSDAVAKPAVAVGISRNGIDYGAEDGELSDVFFMLASPDGDDHHHIEVLAQISTKIIEDGFVEKLKQAQSREEALEMLTDIQTQSNEFLPTSLEFASEPLSPWAQKLGRIKEH
